Changes are numbered by the printed parent chain. Names may count otherwise.
B1: 108VH5.M6 / 108VL1.M5 (antibody, human IgG4 S228P, kappa, V domains shown)
VH: EVQLVQSGAEVKKPGASVKVSCKASGYTFTHHYMHWVRQAPGQGLEWMGMIDASDSETRLSQKFKDRVTMTRDTSTSTVYMELSSLRSEDTAVYYCARLGRYYFDYWGQGTLVTVSS
VL: EIVLTQSPATLSLSPGERATLSCRASQSVSSYLAWYQQKPGQAPRLLIYGASNRATGIPARFSGSGSGTDFTLTISSLEPEDFAVYYCGESYGHLYTFGGGTKVEIKR
notes: Full-length IgG4 (S228P), kappa; also called VH5.M6 VL1.M5
B2: 108VH5.M15 / 108VL1.M5 (antibody, human IgG4 S228P, kappa, V domains shown)
VH: B1 VH with Y33W, M34I, E57S, L60Y, S61A, K65Q, D66G
VL: B1 VL
notes: Full-length IgG4 (S228P), kappa; also called VH5.M15 VL1.M5
B3: 108VH5.M23 / 108VL1.M5 (antibody, human IgG4 S228P, kappa, V domains shown)
VH: B1 VH with Y33W, S56K, L60Y, S61A, K65Q, D66G
VL: B1 VL
notes: Full-length IgG4 (S228P), kappa; also called VH5.M23 VL1.M5
B4: 108VH5.M11 / 108VL1.M5 (antibody, human IgG4 S228P, kappa, V domains shown)
VH: B1 VH with M34I, L60Y, S61A, K65Q, D66G
VL: B1 VL
notes: Full-length IgG4 (S228P), kappa; also called VH5.M11 VL1.M5
B5: 108VH5.M27 / 108VL1.M5 (antibody, human IgG4 S228P, kappa, V domains shown)
VH: B1 VH with Y33W, S56Y, L60Y, S61A, K65Q, D66G
VL: B1 VL
notes: Full-length IgG4 (S228P), kappa; also called VH5.M27 VL1.M5
B6: 108VH10.Mk / 108VL10.Me (antibody, V domains shown)
VH: EVQLVESGGGLVQPGGSLRLSCAASGFTFSHHWIHWVRQAPGKGLEWVAMIDASDSETRLSQKVKDRFTISADTSKNTAYLQMNSLRAEDTAVYYCSRLGRYYFDYWGQGTLVTVSS
VL: DIQMTQSPSSLSASVGDRVTITCRASQSISSYLNWYQQKPGKAPKLLIYGASSRYSGVPSRFSGSRSGTDFTLTISSLQPEDFATYYCGESYGHLYTFGQGTKVEIK
notes: 4D5-framework series; also called VH10.Mk VL10.Me

Legend:
[1] = molecular target: T1, human CD47 on cells (SHP-77 tumor cells, human red blood cells, CCRF-CEM cells, human CD47 CHO-K1 stable cell … (human, UniProt Q08722 19-323)); experiment: flow cytometry on human RBCs;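 further: antibody binding measured by flow cytometry as geometric mean fluorescence intensity over a range of antibody concentrations, with EC50 and maximum taken from a sigmoidal dose-response fit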
T1 construct: whole, on cells; also called RBC

[2] = molecular target: T2, cynomolgus CD47 on CHO-K1 stable cell line (cynomolgus, UniProt A0A5F8AK49 19-323 (rhesus entry)); experiment: flow cytometry on cynomolgus CD47 CHO-K1 cells; plateau not reached, not accurate
T2 construct: whole, on cells; also called cynomolgus CD47/CHO-K1

[3] = molecular target: T1, human CD47 on cells (SHP-77 tumor …); experiment: flow cytometry on SHP-77 cells
[4] = molecular target: T1, human CD47 on cells (SHP-77 tumor …); experiment: flow cytometry on human CD47 CHO-K1 cells; plateau not reached, not accurate
[5] = molecular target: T3, Human CD47-C33G (human, UniProt Q08722 19-135); experiment: SPR, IgG captured, CD47 in flow; exp 1;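 further: biacore T200 SPR using IgG from supernatants of transfected HEK293 cells, rate constants fitted to association and dissociation curves, Kd derived from koff over kon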
T3 construct: also called CD47 mutein with C33G mutation

[6] = molecular target: T4, wild type human CD47 (Acro Biosystems, cat. no. CD7-H5227) (human, UniProt Q08722 19-139); experiment: SPR, IgG captured, CD47 in flow; exp 1;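 further: biacore T200 SPR using IgG from supernatants of transfected HEK293 cells, rate constants fitted to association and dissociation curves, Kd derived from koff over kon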
T4 construct: Bought protein used as SPR analyte; also called Human CD47 wt; wild-type CD47

[7] = molecular target: T3, Human CD47-C33G; experiment: SPR, IgG captured, CD47 in flow; exp 2; estimated, out of instrument limit;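 on kon: IgG from HEK293 cell supernatants tested by SPR on a BIAcore T200, C33G mutein prevents IgV homodimers for monovalent affinity, KD derived from association and dissociation rates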
[8] = molecular target: T3, Human CD47-C33G; experiment: SPR, IgG captured, CD47 in flow; exp 2;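 further: IgG from HEK293 cell supernatants tested by SPR on a BIAcore T200, C33G mutein prevents IgV homodimers for monovalent affinity, KD derived from association and dissociation rates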
[9] = molecular target: T4, wild type human CD47 (Acro Biosystems, …); experiment: SPR, IgG captured, CD47 in flow; exp 2;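 further: IgG from HEK293 cell supernatants tested by SPR on a BIAcore T200, C33G mutein prevents IgV homodimers for monovalent affinity, KD derived from association and dissociation rates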
[10] = molecular target: T2, cynomolgus CD47 on CHO-K1 stable cell …; experiment: flow cytometry on cynomolgus CD47 CHO-K1 cells
[11] = molecular target: T1, human CD47 on cells (SHP-77 tumor …); experiment: cell-based or functional assay
[12] = molecular target: T1, human CD47 on cells (SHP-77 tumor …); experiment: flow cytometry on human CD47 CHO-K1 cells
[13] = molecular target: T3, Human CD47-C33G; experiment: SPR, IgG captured, CD47 in flow; exp 4;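 further: biacore T200 SPR using IgG from transfected HEK293 supernatants against wild-type human CD47 or its C33G mutein, rates fitted to association and dissociation curves, KD estimated from them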
[14] = molecular target: T4, wild type human CD47 (Acro Biosystems, …); experiment: SPR, IgG captured, CD47 in flow; exp 4;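 further: biacore T200 SPR using IgG from transfected HEK293 supernatants against wild-type human CD47 or its C33G mutein, rates fitted to association and dissociation curves, KD estimated from them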
[15] = molecular target: T3, Human CD47-C33G; experiment: SPR, IgG captured, CD47 in flow; exp 3;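 further: other target is a CD47 mutein carrying C33G, used to obtain true monovalent affinity, with kon and koff fitted from SPR binding curves and KD derived from both rates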
[16] = molecular target: T4, wild type human CD47 (Acro Biosystems, …); experiment: SPR, IgG captured, CD47 in flow; exp 3;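 further: other target is a CD47 mutein carrying C33G, used to obtain true monovalent affinity, with kon and koff fitted from SPR binding curves and KD derived from both rates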

| Binder | EC50 [1] [nM] | Fitted Maximal MFI [1] [MFI] | EC50 [2] [nM] | EC50 [3] [nM] | Fitted Maximal MFI [3] [MFI] | EC50 [4] [nM] | Kd [7] [nM] | koff [7] [s⁻¹] | kon [8] [M⁻¹ s⁻¹] | Kd [9] [nM] | koff [9] [s⁻¹] | kon [9] [M⁻¹ s⁻¹] | EC50 [10] [nM] | CCRF-CEM phagocytosis EC50 [11] [nM] | CCRF-CEM phagocytosis, Phagocytosis (%) [11] [%] | EC50 [12] [nM] | Kd [13] [nM] | koff [13] [s⁻¹] | kon [13] [M⁻¹ s⁻¹] | Kd [14] [nM] | other results |
| --- | --- | --- | --- | --- | --- | --- | --- | --- | --- | --- | --- | --- | --- | --- | --- | --- | --- | --- | --- | --- | --- |
| B1 | 11.1 | 9460 | 22.5 | 25.1 | 6250 | 20 | – | – | – | – | – | – | – | – | – | – | – | – | – | – | Kd [5]: 800 nM; koff [5]: 0.097 s⁻¹; kon [5]: 120000 M⁻¹ s⁻¹; Kd [6]: 8 nM; koff [6]: 0.0039 s⁻¹; kon [6]: 490000 M⁻¹ s⁻¹ |
| B2 | 155 | 926 | – | 396 | 3680 | – | > 630 | > 0.1 | 160000 | 22 | 0.0048 | 220000 | – | – | – | – | – | – | – | – | – |
| B3 | 5.8 | 38800 | – | 8.1 | 42100 | – | – | – | – | – | – | – | 3.2 | 0.33 | 64 | 2.7 | 33 | 0.0058 | 170000 | 6.4 | koff [14]: 0.0028 s⁻¹; kon [14]: 440000 M⁻¹ s⁻¹ |
| B4 | 178 | 1540 | – | 797 | 4000 | – | > 530 | > 0.1 | 190000 | 12 | 0.0032 | 260000 | – | – | – | – | – | – | – | – | – |
| B5 | 4.7 | 26900 | – | 9 | 36500 | – | – | – | – | – | – | – | 3.4 | 0.28 | 64.3 | 2.6 | 39 | 0.0085 | 220000 | 7.4 | koff [14]: 0.0036 s⁻¹; kon [14]: 490000 M⁻¹ s⁻¹ |
| B6 | 3.9 | 21700 | 6.4 | 5.3 | 30000 | 5.4 | – | – | – | – | – | – | – | 0.29 | 57.6 | – | – | – | – | – | Kd [15]: 87 nM; koff [15]: 0.019 s⁻¹; kon [15]: 210000 M⁻¹ s⁻¹; Kd [16]: 9 nM; koff [16]: 0.0086 s⁻¹; kon [16]: 950000 M⁻¹ s⁻¹ |

Source: patent US20260132197A1 (NANJING LEGEND BIOTECH, published 2026)
